Source: FireProtDB (doi:10.1021/bi00123a006)

Conditions: Bacillus amyloliquefaciens, 25 °C, Urea, NMR, NaCl 1 M, whole UniProt chain shown

B1: Ribonuclease wild type, P00648 (protein)
chain: MMKMEGIALKKRLSWISVCLLVLVSAAGMLFSTAAKTETSSHKAHTEAQVINTFDGVADYLQTYHKLPDNYITKSEAQALGWVASKGNLADVAPGKSIGGDIFSNREGKLPGKSGRTWREADINYTSGFRNSDRILYSSDWLIYKTTDHYQTFTKIR
B1 gave an unfolding free energy (pH 4.4, Sodium acetate 30 mM) of 8.13 kcal/mol and an unfolding free energy (pH 8.9, Tris 30 mM) of 8.05 kcal/mol.
